Test system: Escherichia coli TOP10
Experiment: shrunken log2 fold change of peptide-encoding DNA abundance (4.5 h post-induction vs induction); higher = less antimicrobial activity (less host growth inhibition)
Details: time post-induction: 4.5 h; library: site-saturation at positions 5, 18, 19, 20
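Note: peptides expressed intracellularly from a pBAD plasmid library in pooled LB shake-flask culture, induced with 0.3% L-arabinose, DNA abundance read by NGS, three biological replicates, DESeq2 with apeglm shrinkage.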

| Sequence | shrunken log2 fold change |
| --- | --- |
| RRIRCRPPRLPRPRPRPYQRPRP | 0.055 |
| RRIRCRPPRLPRPRPRPCQWPRP | -0.00783 |
| RRIRDRPPRLPRPRPRPFDFPRP | 0.122 |
| RRIRIRPPRLPRPRPRPTHQPRP | 0.0537 |
| RRIRTRPPRLPRPRPRPPPLPRP | 0.352 |
| RRIRLRPPRLPRPRPRPSWSPRP | 0.0192 |
| RRIRIRPPRLPRPRPRPAAVPRP | -0.181 |
| RRIRIRPPRLPRPRPRPYPNPRP | -0.072 |
| RRIRLRPPRLPRPRPRPMYQPRP | -0.29 |
| RRIRRRPPRLPRPRPRPVDLPRP | 0.332 |
| RRIRWRPPRLPRPRPRPNFKPRP | -0.264 |
| RRIRGRPPRLPRPRPRPWRIPRP | -0.15 |
| RRIRMRPPRLPRPRPRPNHCPRP | 0.0039 |
| RRIRKRPPRLPRPRPRPTQQPRP | 1.35 |
| RRIRTRPPRLPRPRPRPFESPRP | 0.0313 |
| RRIRVRPPRLPRPRPRPKEMPRP | -0.131 |
| RRIRWRPPRLPRPRPRPRRSPRP | 0.492 |
| RRIRIRPPRLPRPRPRPAIKPRP | -0.265 |
| RRIRVRPPRLPRPRPRPTFHPRP | 0.0139 |
| RRIRLRPPRLPRPRPRPYGHPRP | 2.49 |
| RRIRPRPPRLPRPRPRPQKEPRP | 0.0431 |
| RRIRARPPRLPRPRPRPDAKPRP | 0.338 |

| Sequence | shrunken log2 fold change |
| --- | --- |
| RRIRMRPPRLPRPRPRPMDEPRP | 2.34 |
| RRIRLRPPRLPRPRPRPRREPRP | 0.223 |
| RRIRWRPPRLPRPRPRPKQEPRP | 0.0489 |
| RRIRPRPPRLPRPRPRPCHPPRP | -0.154 |
| RRIRERPPRLPRPRPRPCMTPRP | -0.00173 |
| RRIRMRPPRLPRPRPRPIPHPRP | 0.246 |
| RRIRDRPPRLPRPRPRPTTFPRP | 0.0301 |
| RRIRRRPPRLPRPRPRPFFTPRP | 0.501 |
| RRIRHRPPRLPRPRPRPRIQPRP | -0.267 |
| RRIRIRPPRLPRPRPRPFDDPRP | 0.0183 |
| RRIRKRPPRLPRPRPRPPYTPRP | 0.0509 |
| RRIRCRPPRLPRPRPRPLYFPRP | -0.836 |
| RRIRIRPPRLPRPRPRPAAMPRP | 0.391 |
| RRIRVRPPRLPRPRPRPPQAPRP | 0.0808 |
| RRIRSRPPRLPRPRPRPQDFPRP | -0.161 |
| RRIRLRPPRLPRPRPRPSQCPRP | -0.114 |
| RRIRFRPPRLPRPRPRPVKEPRP | -0.0554 |
| RRIRVRPPRLPRPRPRPCGSPRP | -0.225 |
| RRIRHRPPRLPRPRPRPTLGPRP | -0.0595 |
| RRIRMRPPRLPRPRPRPIWWPRP | 0.124 |
| RRIRARPPRLPRPRPRPCYYPRP | -0.508 |
| RRIRGRPPRLPRPRPRPRMNPRP | 0.572 |

| Sequence | shrunken log2 fold change |
| --- | --- |
| RRIRMRPPRLPRPRPRPMSTPRP | 0.0207 |
| RRIRPRPPRLPRPRPRPKQAPRP | -0.0162 |
| RRIRFRPPRLPRPRPRPTFYPRP | -0.366 |
| RRIRTRPPRLPRPRPRPLPGPRP | 0.164 |
| RRIRNRPPRLPRPRPRPFCDPRP | -0.133 |
| RRIRSRPPRLPRPRPRPARDPRP | 0.407 |
| RRIRQRPPRLPRPRPRPYKVPRP | 0.000796 |
| RRIRPRPPRLPRPRPRPSGRPRP | 0.0933 |
| RRIRARPPRLPRPRPRPEEPPRP | 1.24 |
| RRIRDRPPRLPRPRPRPTNYPRP | -0.48 |
| RRIRERPPRLPRPRPRPDDSPRP | -0.435 |
| RRIRTRPPRLPRPRPRPGLGPRP | 0.466 |
| RRIRGRPPRLPRPRPRPDRIPRP | 0.286 |
| RRIRVRPPRLPRPRPRPEDNPRP | -0.184 |
| RRIRLRPPRLPRPRPRPACCPRP | 0.0218 |
| RRIRPRPPRLPRPRPRPCQPPRP | -0.0774 |
| RRIRHRPPRLPRPRPRPLFPPRP | -0.102 |
| RRIRLRPPRLPRPRPRPNGCPRP | 0.00888 |
| RRIRMRPPRLPRPRPRPHEYPRP | -0.308 |
| RRIRERPPRLPRPRPRPNLEPRP | -0.228 |
| RRIRCRPPRLPRPRPRPEPVPRP | 0.0937 |
| RRIRKRPPRLPRPRPRPPDIPRP | 0.609 |

| Sequence | shrunken log2 fold change |
| --- | --- |
| RRIRVRPPRLPRPRPRPWLLPRP | 0.208 |
| RRIRVRPPRLPRPRPRPRAEPRP | 0.677 |
| RRIRRRPPRLPRPRPRPKETPRP | 0.17 |
| RRIRTRPPRLPRPRPRPPVVPRP | -0.0715 |
| RRIRRRPPRLPRPRPRPGRAPRP | 0.648 |
| RRIRHRPPRLPRPRPRPLFKPRP | -0.183 |
| RRIRLRPPRLPRPRPRPRWMPRP | 0.162 |
| RRIRLRPPRLPRPRPRPRPWPRP | 0.199 |
| RRIRDRPPRLPRPRPRPAPGPRP | 0.699 |
| RRIRCRPPRLPRPRPRPEGQPRP | 0.788 |
| RRIRPRPPRLPRPRPRPREFPRP | 0.485 |
| RRIRWRPPRLPRPRPRPGRKPRP | -0.0532 |
| RRIRARPPRLPRPRPRPDWMPRP | 0.383 |
| RRIRFRPPRLPRPRPRPGFPPRP | 0.098 |
| RRIRFRPPRLPRPRPRPWHSPRP | -0.018 |
| RRIRERPPRLPRPRPRPPYEPRP | -0.296 |
| RRIRWRPPRLPRPRPRPRPGPRP | 0.772 |
| RRIRRRPPRLPRPRPRPYLKPRP | -0.936 |
| RRIRGRPPRLPRPRPRPEPKPRP | 0.45 |
| RRIRHRPPRLPRPRPRPKEQPRP | -0.00965 |
| RRIRFRPPRLPRPRPRPVFSPRP | -0.293 |
| RRIRPRPPRLPRPRPRPMQRPRP | 0.195 |

| Sequence | shrunken log2 fold change |
| --- | --- |
| RRIRHRPPRLPRPRPRPKNPPRP | -0.155 |
| RRIRWRPPRLPRPRPRPVHDPRP | 0.141 |
| RRIRRRPPRLPRPRPRPPLDPRP | 1.24 |
| RRIRFRPPRLPRPRPRPNTCPRP | -0.483 |
| RRIRTRPPRLPRPRPRPSWCPRP | -0.322 |
| RRIRFRPPRLPRPRPRPFGNPRP | 0.0348 |
| RRIRPRPPRLPRPRPRPFQVPRP | -0.0122 |
| RRIRGRPPRLPRPRPRPAGYPRP | 0.164 |
| RRIRYRPPRLPRPRPRPQNFPRP | -0.00184 |
| RRIRWRPPRLPRPRPRPINAPRP | 0.252 |
| RRIRYRPPRLPRPRPRPLYYPRP | -1.44 |
| RRIRVRPPRLPRPRPRPEFPPRP | -0.081 |
| RRIRHRPPRLPRPRPRPWGAPRP | -0.0102 |
| RRIRTRPPRLPRPRPRPGIWPRP | -0.0153 |
| RRIRWRPPRLPRPRPRPRYMPRP | -0.139 |
| RRIRDRPPRLPRPRPRPHHDPRP | -0.336 |
| RRIRQRPPRLPRPRPRPVDTPRP | -0.183 |
| RRIRIRPPRLPRPRPRPRDDPRP | 0.168 |
| RRIRERPPRLPRPRPRPFNMPRP | -0.236 |
| RRIRGRPPRLPRPRPRPKRWPRP | 0.796 |
| RRIRYRPPRLPRPRPRPGHTPRP | -0.626 |
